The target of one test is T1, Mcm3 (budding yeast, UniProt P24279 1-971).
T1 construct: Mcm3, subunit of the yeast Mcm2-7 helicase; Subunit as it stands in the loaded, unmodified MCM double hexamer; The complex was purified on calmodulin resin
Description: cryo-EM structure; MCM loaded on bead-immobilised biotinylated 2.8 kb ARS1 DNA with ORC, Cdc6, ATP; with or without DDK; high-salt wash (0.3 M KCl); DNA released by MseI in EM buffer (25 mM Hepes 7.6, 5 mM Mg-acetate, 250 mM K-glutamate); lacey carbon grids, Titan Krios/K2. As to conditions: both partners purified.

A further test addresses T2, Mcm4 (budding yeast, UniProt P30665 1-933).
T2 construct: Mcm4, subunit of the yeast Mcm2-7 helicase; Subunit as it stands in the loaded, unmodified MCM double hexamer
T2 sequence: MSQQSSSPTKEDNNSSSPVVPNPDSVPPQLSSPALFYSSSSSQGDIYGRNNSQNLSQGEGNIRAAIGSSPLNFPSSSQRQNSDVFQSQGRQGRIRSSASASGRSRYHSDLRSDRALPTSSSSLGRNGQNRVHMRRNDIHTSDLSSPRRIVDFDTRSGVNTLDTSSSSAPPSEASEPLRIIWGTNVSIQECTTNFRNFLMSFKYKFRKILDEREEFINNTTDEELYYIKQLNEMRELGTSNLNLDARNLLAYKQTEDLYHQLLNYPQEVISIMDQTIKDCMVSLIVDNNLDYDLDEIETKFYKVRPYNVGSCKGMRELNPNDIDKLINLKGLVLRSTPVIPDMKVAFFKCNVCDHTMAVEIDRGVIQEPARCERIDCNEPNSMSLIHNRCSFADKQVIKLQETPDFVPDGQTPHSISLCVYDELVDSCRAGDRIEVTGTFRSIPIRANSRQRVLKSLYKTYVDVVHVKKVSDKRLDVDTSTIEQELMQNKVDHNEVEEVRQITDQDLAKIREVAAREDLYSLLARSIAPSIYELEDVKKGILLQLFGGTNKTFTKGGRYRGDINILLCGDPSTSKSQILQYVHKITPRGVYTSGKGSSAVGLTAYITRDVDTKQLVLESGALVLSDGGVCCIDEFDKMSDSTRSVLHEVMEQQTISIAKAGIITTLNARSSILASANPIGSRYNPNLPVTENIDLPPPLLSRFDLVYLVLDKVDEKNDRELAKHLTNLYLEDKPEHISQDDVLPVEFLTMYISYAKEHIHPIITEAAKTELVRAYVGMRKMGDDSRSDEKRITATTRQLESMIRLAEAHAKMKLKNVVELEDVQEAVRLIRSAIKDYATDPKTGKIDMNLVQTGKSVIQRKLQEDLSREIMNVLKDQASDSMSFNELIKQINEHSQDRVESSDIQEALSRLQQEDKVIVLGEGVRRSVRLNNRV
The test is described as above. Particulars: both partners purified.

T1 sequence (P24279 whole entry): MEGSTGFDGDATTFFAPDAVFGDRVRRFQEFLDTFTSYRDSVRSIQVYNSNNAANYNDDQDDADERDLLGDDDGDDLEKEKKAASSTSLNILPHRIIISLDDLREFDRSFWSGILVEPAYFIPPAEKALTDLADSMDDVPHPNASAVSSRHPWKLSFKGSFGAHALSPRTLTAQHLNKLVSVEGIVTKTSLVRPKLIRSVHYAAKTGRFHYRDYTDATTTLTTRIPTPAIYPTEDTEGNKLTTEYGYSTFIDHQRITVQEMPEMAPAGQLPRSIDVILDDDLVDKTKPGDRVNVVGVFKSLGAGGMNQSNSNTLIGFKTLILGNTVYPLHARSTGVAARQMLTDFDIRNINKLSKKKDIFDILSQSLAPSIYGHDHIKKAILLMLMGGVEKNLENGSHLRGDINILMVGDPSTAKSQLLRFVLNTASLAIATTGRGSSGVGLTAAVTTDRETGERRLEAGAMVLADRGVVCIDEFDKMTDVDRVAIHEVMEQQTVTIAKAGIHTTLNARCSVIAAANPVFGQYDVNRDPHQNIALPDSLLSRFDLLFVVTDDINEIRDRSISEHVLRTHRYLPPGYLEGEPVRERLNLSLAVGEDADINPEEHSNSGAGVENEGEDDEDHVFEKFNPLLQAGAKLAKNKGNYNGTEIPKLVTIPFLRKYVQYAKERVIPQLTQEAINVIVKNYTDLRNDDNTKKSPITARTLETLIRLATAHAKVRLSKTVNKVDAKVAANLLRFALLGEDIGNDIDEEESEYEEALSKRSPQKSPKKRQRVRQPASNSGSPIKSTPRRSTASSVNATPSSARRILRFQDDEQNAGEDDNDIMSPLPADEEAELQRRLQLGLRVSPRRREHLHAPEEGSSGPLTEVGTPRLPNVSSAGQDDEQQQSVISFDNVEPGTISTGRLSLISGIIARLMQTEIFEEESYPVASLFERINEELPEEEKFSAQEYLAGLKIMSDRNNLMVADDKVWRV

B1: Mcm7 (natural protein, budding yeast)
chain: MSAALPSIQLPVDYNNLFNEITDFLVTFKQDTLSSDATRNENEDENLDAENIEQHLLEKGPKYMAMLQKVANRELNSVIIDLDDILQYQNEKFLQGTQADDLVSAIQQNANHFTELFCRAIDNNMPLPTKEIDYKDDVLDVILNQRRLRNERMLSDRTNEIRSENLMDTTMDPPSSMNDALREVVEDETELFPPNLTRRYFLYFKPLSQNCARRYRKKAISSKPLSVRQIKGDFLGQLITVRGIITRVSDVKPAVEVIAYTCDQCGYEVFQEVNSRTFTPLSECTSEECSQNQTKGQLFMSTRASKFSAFQECKIQELSQQVPVGHIPRSLNIHVNGTLVRSLSPGDIVDVTGIFLPAPYTGFKALKAGLLTETYLEAQFVRQHKKKFASFSLTSDVEERVMELITSGDVYNRLAKSIAPEIYGNLDVKKALLLLLVGGVDKRVGDGMKIRGDINVCLMGDPGVAKSQLLKAICKISPRGVYTTGKGSSGVGLTAAVMKDPVTDEMILEGGALVLADNGICCIDEFDKMDESDRTAIHEVMEQQTISISKAGINTTLNARTSILAAANPLYGRYNPRLSPLDNINLPAALLSRFDILFLMLDIPSRDDDEKLAEHVTYVHMHNKQPDLDFTPVEPSKMREYIAYAKTKRPVMSEAVNDYVVQAYIRLRQDSKREMDSKFSFGQATPRTLLGIIRLSQALAKLRLADMVDIDDVEEALRLVRVSKESLYQETNKSKEDESPTTKIFTIIKKMLQETGKNTLSYENIVKTVRLRGFTMLQLSNCIQEYSYLNVWHLINEGNTLKFVDDGTMDTDQEDSLVSTPKLAPQTTASANVSAQDSDIDLQDA
notes: Mcm7, subunit of the yeast Mcm2-7 helicase; Subunit as it stands in the loaded, unmodified MCM double hexamer
With B1, the binding result with Mcm3 and in the test with Mcm4 was “binds” each time.
